Publication PMC4104448 (2014)

T1: H150T mutant LIMP-2 (human, UniProt Q14108 28-432, H150T)
T1 sequence: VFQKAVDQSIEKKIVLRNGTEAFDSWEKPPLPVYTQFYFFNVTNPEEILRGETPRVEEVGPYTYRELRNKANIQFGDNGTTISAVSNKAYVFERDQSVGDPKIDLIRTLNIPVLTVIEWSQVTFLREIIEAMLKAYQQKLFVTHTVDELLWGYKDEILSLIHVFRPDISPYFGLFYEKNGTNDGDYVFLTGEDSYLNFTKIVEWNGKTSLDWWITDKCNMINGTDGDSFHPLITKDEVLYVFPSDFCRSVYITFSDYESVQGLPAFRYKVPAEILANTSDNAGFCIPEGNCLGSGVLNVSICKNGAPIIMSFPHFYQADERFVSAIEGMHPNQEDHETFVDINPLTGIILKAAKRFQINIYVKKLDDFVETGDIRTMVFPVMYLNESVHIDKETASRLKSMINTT

B1: Human LIMP-2 luminal domain (residues 28-431) produced from HEK293T cells, with full glycosylation (domain or fragment)
chain: VFQKAVDQSIEKKIVLRNGTEAFDSWEKPPLPVYTQFYFFNVTNPEEILRGETPRVEEVGPYTYRELRNKANIQFGDNGTTISAVSNKAYVFERDQSVGDPKIDLIRTLNIPVLTVIEWSQVHFLREIIEAMLKAYQQKLFVTHTVDELLWGYKDEILSLIHVFRPDISPYFGLFYEKNGTNDGDYVFLTGEDSYLNFTKIVEWNGKTSLDWWITDKCNMINGTDGDSFHPLITKDEVLYVFPSDFCRSVYITFSDYESVQGLPAFRYKVPAEILANTSDNAGFCIPEGNCLGSGVLNVSICKNGAPIIMSFPHFYQADERFVSAIEGMHPNQEDHETFVDINPLTGIILKAAKRFQINIYVKKLDDFVETGDIRTMVFPVMYLNESVHIDKETASRLKSMINT
modifications: full glycosylation
B2: Biotinylated human β-glucocerebrosidase (residues 40A-536R) (enzyme)
chain: ARPCIPKSFGYSSVVCVCNATYCDSFDPPTFPALGTFSRYESTRSGRRMELSMGPIQANHTGTGLLLTLQPEQKFQKVKGFGGAMTDAAALNILALSPPAQNLLLKSYFSEEGIGYNIIRVPMASCDFSIRTYTYADTPDDFQLHNFSLPEEDTKLKIPLIHRALQLAQRPVSLLASPWTSPTWLKTNGAVNGKGSLKGQPGDIYHQTWARYFVKFLDAYAEHKLQFWAVTAENEPSAGLLSGYPFQCLGFTPEHQRDFIARDLGPTLANSTHHNVRLLMLDDQRLLLPHWAKVVLTDPEAAKYVHGIAVHWYLDFLAPAKATLGETHRLFPNTMLFASEACVGSKFWEQSVRLGSWDRGMQYSHSIITNLLYHVVGWTDWNLALNPEGGPNWVRNFVDSPIIVDITKDTFYKQPMFYHLGHFSKFIPEGSQRVGLVASQKNDLDAVALMHPDGSAVVVVLNRSSKDVPLTIKDPAVGFLETISPGYSIHTYLWRRQ
modifications: biotin (in vivo biotinylated by BirA)
B3: Human LIMP-2 luminal domain (residues 28-431) produced from HEK293S (GnTI-) cells, with limited glycosylation (domain or fragment)
chain: B1 chain
modifications: N-linked P-Man9GlcNAc2 (with terminal mannose 6-phosphate) at N325; sugars on all nine N-linked glycosylation sites, limited processing
B4: Wild-type LIMP-2 (soluble luminal domain; producing cells not stated for the experiment) (domain or fragment)
chain: B1 chain
B5: Human LIMP-2 luminal domain produced from HEK293S (GNTI-) cells and deglycosylated with endoglycosidase F1 (domain or fragment)
chain: B1 chain
modifications: glycans trimmed to a single N-acetylglucosamine with endoglycosidase F1

Columns and labels:
[1] = molecular target: B2; experiment: SPR; 2 mM M6P
[2] = molecular target: B2; experiment: SPR; 2 mM G6P
[3] = molecular target: T2, Biotinylated human CI-MPR domains I-XV (residues 41Q-G2293) (human, UniProt P11717 41-2293, biotin (in vivo biotinylated by BirA)); experiment: SPR; 2 mM G6P
T2 sequence (P11717 41-2293): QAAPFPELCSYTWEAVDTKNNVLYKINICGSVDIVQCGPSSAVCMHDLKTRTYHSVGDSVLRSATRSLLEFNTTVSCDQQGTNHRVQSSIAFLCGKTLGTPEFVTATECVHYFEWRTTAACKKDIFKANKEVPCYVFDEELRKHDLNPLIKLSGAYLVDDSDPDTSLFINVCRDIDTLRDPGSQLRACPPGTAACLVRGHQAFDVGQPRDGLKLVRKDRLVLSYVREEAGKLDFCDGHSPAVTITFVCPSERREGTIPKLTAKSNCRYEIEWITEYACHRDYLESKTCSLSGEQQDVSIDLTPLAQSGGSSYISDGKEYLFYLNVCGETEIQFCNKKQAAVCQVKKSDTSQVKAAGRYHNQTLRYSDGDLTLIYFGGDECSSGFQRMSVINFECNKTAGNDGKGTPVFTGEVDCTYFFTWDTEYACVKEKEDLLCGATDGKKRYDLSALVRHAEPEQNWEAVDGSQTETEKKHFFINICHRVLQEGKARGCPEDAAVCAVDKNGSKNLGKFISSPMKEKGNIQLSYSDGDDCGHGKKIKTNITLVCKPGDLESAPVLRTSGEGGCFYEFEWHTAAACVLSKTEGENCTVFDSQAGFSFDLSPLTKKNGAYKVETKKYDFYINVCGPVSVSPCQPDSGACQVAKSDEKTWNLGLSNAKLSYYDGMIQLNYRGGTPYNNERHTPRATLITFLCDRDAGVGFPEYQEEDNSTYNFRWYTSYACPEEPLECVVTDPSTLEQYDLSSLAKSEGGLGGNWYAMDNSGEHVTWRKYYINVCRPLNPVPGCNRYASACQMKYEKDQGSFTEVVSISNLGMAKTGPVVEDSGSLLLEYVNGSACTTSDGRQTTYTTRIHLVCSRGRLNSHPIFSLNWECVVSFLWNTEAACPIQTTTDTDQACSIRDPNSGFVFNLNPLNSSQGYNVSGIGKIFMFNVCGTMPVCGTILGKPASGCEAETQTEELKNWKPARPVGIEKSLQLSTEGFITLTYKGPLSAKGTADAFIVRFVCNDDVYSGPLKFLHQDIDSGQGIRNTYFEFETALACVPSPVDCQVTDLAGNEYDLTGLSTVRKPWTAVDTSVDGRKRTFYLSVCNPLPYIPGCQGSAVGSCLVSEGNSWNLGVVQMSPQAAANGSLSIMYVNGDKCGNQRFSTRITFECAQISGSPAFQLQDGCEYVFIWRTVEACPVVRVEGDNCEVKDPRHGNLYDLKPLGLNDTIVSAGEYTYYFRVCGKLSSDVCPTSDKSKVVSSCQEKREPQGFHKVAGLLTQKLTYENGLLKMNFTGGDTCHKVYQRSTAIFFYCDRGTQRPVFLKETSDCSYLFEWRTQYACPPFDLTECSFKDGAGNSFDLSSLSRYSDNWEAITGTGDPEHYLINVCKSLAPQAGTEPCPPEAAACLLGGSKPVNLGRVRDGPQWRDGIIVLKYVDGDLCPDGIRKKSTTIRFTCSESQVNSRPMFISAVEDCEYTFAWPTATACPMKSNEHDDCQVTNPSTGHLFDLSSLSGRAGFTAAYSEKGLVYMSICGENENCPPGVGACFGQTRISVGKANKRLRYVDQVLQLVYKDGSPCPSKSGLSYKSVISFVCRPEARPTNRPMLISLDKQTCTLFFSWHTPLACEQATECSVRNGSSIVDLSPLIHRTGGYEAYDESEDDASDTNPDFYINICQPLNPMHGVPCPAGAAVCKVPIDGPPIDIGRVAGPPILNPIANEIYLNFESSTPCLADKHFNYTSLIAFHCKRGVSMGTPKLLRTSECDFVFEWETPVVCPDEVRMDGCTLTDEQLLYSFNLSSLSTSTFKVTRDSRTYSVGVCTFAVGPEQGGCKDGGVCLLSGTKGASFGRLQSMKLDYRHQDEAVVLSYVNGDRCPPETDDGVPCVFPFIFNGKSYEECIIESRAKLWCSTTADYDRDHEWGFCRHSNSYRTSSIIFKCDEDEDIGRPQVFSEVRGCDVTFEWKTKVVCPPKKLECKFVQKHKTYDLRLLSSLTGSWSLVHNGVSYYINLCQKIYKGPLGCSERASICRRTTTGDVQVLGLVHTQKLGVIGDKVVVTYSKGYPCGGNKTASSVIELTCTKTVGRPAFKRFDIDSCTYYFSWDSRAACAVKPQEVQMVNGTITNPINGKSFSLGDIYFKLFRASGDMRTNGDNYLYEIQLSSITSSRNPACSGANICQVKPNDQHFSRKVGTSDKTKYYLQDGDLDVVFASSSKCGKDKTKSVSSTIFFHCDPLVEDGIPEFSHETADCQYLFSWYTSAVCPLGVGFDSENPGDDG

[4] = molecular target: B2; experiment: SPR
[5] = molecular target: B2; experiment: SPR; 2 mM mannose
[6] = molecular target: T2, Biotinylated human CI-MPR domains I-XV …; experiment: SPR; 2 mM mannose
H150T mutant LIMP-2 [7] = molecular target: T1, H150T mutant LIMP-2; experiment: SPR; pH 5.5
H150T mutant LIMP-2 [8] = molecular target: T1, H150T mutant LIMP-2; experiment: SPR; pH 6.5
[9] = molecular target: T2, Biotinylated human CI-MPR domains I-XV …; experiment: SPR; buffer without sugar
[10] = molecular target: T2, Biotinylated human CI-MPR domains I-XV …; experiment: SPR; with 2 mM mannose
[11] = molecular target: B2; experiment: SPR; pH 6.5

For B1, the Kd [1] was 2100 nM, the Kd [2] was 1800 nM and the Kd [3] was 1160 nM. For the same binder, the Kd [4] was 2060 nM, the Kd [5] was 2830 nM and the Kd [6] was 1200 nM.

In the case of B2, the Kd (H150T mutant LIMP-2 [7]) is reported as 2100 nM and the Kd (H150T mutant LIMP-2 [8]) is reported as 2300 nM.

Binder B3 has a Kd [9] of 1800 nM and a Kd [10] of 1880 nM.

With B4 the Kd [11] was 1200 nM.

Work on B5 yielded a Kd [4] of 3000 nM.
